B1: BIIB-12-1315 (antibody, V domains shown)
VH: QVQLVQSGAEVKKPGASVKVSCKASGYTFTSYYMVWVRQAPGQGLEWMGIINPSGGSTSYAQKFQGRVTMTRDTSTSTVYMELSSLRSEDTAVYYCARGRPSSKRVTYFDYWGQGTLVTVSS
VL: EIVMTQSPATLSVSPGERATLSCRASQSVSSNLAWYQQKPGQAPRLLIYGASTRATGIPARFSGSGSGTEFTLTISSLQSEDFAVYYCQQVFNWPPWTFGGGTKVEIK
notes: IgG
B2: BIIB-12-1322 (antibody, V domains shown)
VH: QVQLVQSGAEVKKPGASVKVSCKASGYTFTSYYIHWVRQAPGQGLEWMGIINPSGGSTSYAQKFQGRVTMTRDTSTSTVYMELSSLRSEDTAVYYCARSRQRHRGDWYFDLWGRGTLVTVSS
VL: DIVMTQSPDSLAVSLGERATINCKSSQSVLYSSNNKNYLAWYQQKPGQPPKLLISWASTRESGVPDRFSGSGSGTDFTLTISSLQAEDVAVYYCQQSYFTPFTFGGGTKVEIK
notes: IgG
B3: BIIB-12-1291 (antibody, V domains shown)
VH: QVQLVQSGAEVKKPGASVKVSCKASGYTFTSYYMHWVRQAPGQGLEWMGIINPSGGSTSYAQKFQGRVTMTRDTSTSTVYMELSSLRSEDTAVYYCARSRRMWVGYFDLWGRGTLVTVSS
VL: EIVLTQSPATLSLSPGERATLSCRASQSVSSYLAWYQQKPGQAPRLLIYDASNRATGIPARFSGSGSGTDFTLTISSLEPEDFAVYYCQQRLNLPLTFGGGTKVEIK
notes: IgG
B4: BIIB-12-1297 (antibody, V domains shown)
VH: QVQLVESGGGVVQPGRSLRLSCAASGFTFSSYGMHWVRQAPGKGLEWVAVISYDGSNKYYADSVKGRFTISRDNSKNTLYLQMNSLRAEDTAVYYCARSGGQTHRRSMDVWGQGTTVTVSS
VL: EIVLTQSPATLSLSPGERATLSCRASQSVSRYLAWYQQKPGQAPRLLIYDASNRATGIPARFSGSGSGTDFTLTISSLEPEDFAVYYCQQGNNWPPTFGGGTKVEIK
notes: IgG
B5: BIIB-12-1305 (antibody, V domains shown)
VH: QVQLVESGGGVVQPGRSLRLSCAASGFTFSSYGMHWVRQAPGKGLEWVAVISYDGSNKYYADSVKGRFTISRDNSKNTLYLQMNSLRAEDTAVYYCAKLGGRWSSDFQHWGQGTLVTVSS
VL: EIVLTQSPATLSLSPGERATLSCRASQSVSSYLAWYQQKPGQAPRLLIYDASNRATGIPARFSGSGSGTDFTLTISSLEPEDFAVYYCQQSANWPPTFGGGTKVEIK
notes: IgG
B6: BIIB-12-1301 (antibody, V domains shown)
VH: QVQLVESGGGVVQPGRSLRLSCAASGFTFSSYGMHWVRQAPGKGLEWVAVISYDGSNKYYADSVKGRFTISRDNSKNTLYLQMNSLRAEDTAVYYCARTGNYGRGMPYWGQGTLVTVSS
VL: EIVLTQSPATLSLSPGERATLSCRASQSVSSYLAWYQQKPGQAPRLLIYDASKRATGIPARFSGSGSGTDFTLTISSLEPEDFAVYYCQQSSSWPPTFGGGTKVEIK
notes: IgG
B7: BIIB-12-1302 (antibody, V domains shown)
VH: QVQLVQSGAEVKKPGASVKVSCKASGYTFTNYGISWVRQAPGQGLEWMGWISAYNGNTNYAQKLQGRVTMTTDTSTSTAYMELRSLRSDDTAVYYCARARSDWRAFDIWGQGTMVTVSS
VL: EIVMTQSPATLSVSPGERATLSCRASQSVSSNLAWYQQKPGQAPRLLIYGASTRATGIPARFSGSGSGTEFTLTISSLQSEDFAVYYCQQVNNLPLTFGGGTKVEIK
notes: IgG
B8: BIIB-12-1292 (antibody, V domains shown)
VH: QVQLVQSGAEVKKPGASVKVSCKASGYTFTSYYIHWVRQAPGQGLEWMGIINPSGGSTSYAQKFQGRVTMTRDTSTSTVYMELSSLRSEDTAVYYCARDPGRRQSSGFDYWGQGTLVTVSS
VL: EIVMTQSPATLSLSPGERATLSCRASQSVSSYLAWYQQKPGQAPRLLIYDSSNRATGIPARFSGSGSGTDFTLTISSLEPEDFAVYYCQQRLNFPFTFGGGTKVEIK
notes: IgG
B9: BIIB-12-1310 (antibody, V domains shown)
VH: EVQLVESGGGLVKPGGSLRLSCAASGFTFSSYSMNWVRQAPGKGLEWVSSISSSSSYIYYADSVKGRFTISRDNAKNSLYLQMNSLRAEDTAVYYCARLGGYGSSQRYFDLWGRGTLVTVSS
VL: EIVLTQSPATLSLSPGERATLSCRASQSVSRYLAWYQQKPGQAPRLLIYDASNRATGIPARFSGSGSGTDFTLTISSLEPEDFAVYYCEQASNWPPTFGGGTKVEIK
notes: IgG
B10: BIIB-12-1318 (antibody, V domains shown)
VH: QVQLVESGGGVVQPGRSLRLSCAASGFTFSSYGMHWVRQAPGKGLEWVAVISYDGSNKYYADSVKGRFTISRDNSKNTLYLQMNSLRAEDTAVYYCARKGDYRSGSYSGRAFGIWGQGTMVTVSS
VL: EIVLTQSPATLSLSPGERATLSCRASQSVSSYLAWYQQKPGQAPRLLIYDASNRATGIPARFSGSGSGTDFTLTISSLEPEDFAVYYCQQLNNWPPTFGGGTKVEIK
notes: IgG
B11: BIIB-12-1304 (antibody, V domains shown)
VH: QVQLVESGGGVVQPGRSLRLSCAASGFTFSSYGMHWVRQAPGKGLEWVAVISYDGSNKYYADSVKGRFTISRDNSKNTLYLQMNSLRAEDTAVYYCAKGPGSRRFDIWGQGTMVTVSS
VL: EIVMTQSPATLSVSPGERATLSCRASQSVSSNLAWYQQKPGQAPRLLIYGASTRATGIPARFSGSGSGTEFTLTISSLQSEDFAVYYCQQANVLPLTFGGGTKVEIK
notes: IgG
B12: BIIB-12-1319 (antibody, V domains shown)
VH: QVQLVESGGGVVQPGRSLRLSCAASGFTFSSYGMHWVRQAPGKGLEWVAVISYDGSNKYYADSVKGRFTISRDNSKNTLYLQMNSLRAEDTAVYYCARTGYHRSVYYWGQGTLVTVSS
VL: EIVMTQSPATLSVSPGERATLSCRASQSVSSNLAWYQQKPGQAPRLLIYGASTRATGIPARFSGSGSGTEFTLTISSLQSEDFAVYYCQQASNFPPTFGGGTKVEI
notes: IgG
B13: BIIB-12-1313 (antibody, V domains shown)
VH: QVQLVESGGGVVQPGRSLRLSCAASGFTFSSYGMHWVRQAPGKGLEWVAVISYDGSNKYYADSVKGRFTISRDNSKNTLYLQMNSLRAEDTAVYYCAKGTGWWRYWGQGTLVTVSS
VL: EIVMTQSPATLSVSPGERATLSCRASQSVSSNLAWYQQKPGQAPRLLIYGASTRATGIPARFSGSGSGTEFTLTISSLQSEDFAVYYCQQHNHLPITFGGGTKVEIK
notes: IgG
B14: BIIB-12-1306 (antibody, V domains shown)
VH: QVQLQESGPGLVKPSQTLSLTCTVSGGSISSGGYYWSWIRQHPGKGLEWIGSIYYSGSTYYNPSLKSRVTISVDTSKNQFSLKLSSVTAADTAVYYCARGAGGSAPWGQGTLVTVSS
VL: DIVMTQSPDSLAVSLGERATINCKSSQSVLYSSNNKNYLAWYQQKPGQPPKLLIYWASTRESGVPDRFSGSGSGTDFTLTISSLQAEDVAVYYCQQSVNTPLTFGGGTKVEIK
notes: IgG
B15: BIIB-12-1295 (antibody, V domains shown)
VH: QVQLVQSGAEVKKPGASVKVSCKASGYTFTSYYMVWVRQAPGQGLEWMGIINPSGGSTSYAQKFQGRVTMTRDTSTSTVYMELSSLRSEDTAVYYCARVGGATTGKIGYGMDVWGQGTTVTVSS
VL: DIQMTQSPSSVSASVGDRVTITCRASQGISSWLAWYQQKPGKAPKLLIYAASNLQSGVPSRFSGSGSGTDFTLTISSLQPEDFATYYCQQAISLPITFGGGTKVEIK
notes: IgG
B16: BIIB-12-1323 (antibody, V domains shown)
VH: QVQLVQSGAEVKKPGASVKVSCKASGYTFTSYYIHWVRQAPGQGLEWMGIINPSGGSTSYAQKFQGRVTMTRDTSTSTVYMELSSLRSEDTAVYYCARGRRFPRGLDYWGQGTLVTVSS
VL: DIQMTQSPSSVSASVGDRVTITCRASQGISSWLAWYQQKPGKAPKLLIYAASSLQSGVPSRFSGSGSGTDFTLTISSLQPEDFATYYCQQANIFPFTFGGGTKVEIK
notes: IgG
B17: BIIB-12-1312 (antibody, V domains shown)
VH: QVQLVESGGGVVQPGRSLRLSCAASGFTFSSYGMHWVRQAPGKGLEWVAVISYDGSNKYYADSVKGRFTISRDNSKNTLYLQMNSLRAEDTAVYYCAKGMGHWIDYWGQGTLVTVSS
VL: DIQMTQSPSSVSASVGDRVTITCRASQGISSWLAWYQQKPGKAPKLLIYAASSLQSGVPSRFSGSGSGTDFTLTISSLQPEDFATYYCQQASSFPPTFGGGTKVEIK
notes: IgG
B18: BIIB-12-1298 (antibody, V domains shown)
VH: QVQLVESGGGVVQPGRSLRLSCAASGFTFSSYGMHWVRQAPGKGLEWVAVISYDGSNKYYADSVKGRFTISRDNSKNTLYLQMNSLRAEDTAVYYCAKGGSDRRVGSWGQGTLVTVSS
VL: DIQMTQSPSSVSASVGDRVTITCRASQGISSWLAWYQQKPGKAPKLLIYAASSLQSGVPSRFSGSGSGTDFTLTISSLQPEDFATYYCQQTNSLPITFGGGTKVEIK
notes: IgG
B19: BIIB-12-1307 (antibody, V domains shown)
VH: QVQLQESGPGLVKPSETLSLTCAVSGYSISSGYYWAWIRQPPGKGLEWIGSIYHSGSTYYNPSLKSRVTISVDTSKNQFSLKLSSVTAADTAVYYCARGPLPRSRGLAFDIWGQGTMVTVSS
VL: DIQLTQSPSSLSASVGDRVTITCRASQSISSFLNWYQQKPGKAPKLLIYAASSLQSGVPSRFSGSGSGTDFTLTISSLQPEDFATYYCQQTYSTPLTFGGGTKVEIK
notes: IgG
B20: BIIB-12-1317 (antibody, V domains shown)
VH: QVQLVESGGGVVQPGRSLRLSCAASGFTFSSYGMHWVRQAPGKGLEWVAVISYDGSNKYYADSVKGRFTISRDNSKNTLYLQMNSLRAEDTAVYYCARGVGGHDTRWGQGTLVTVSS
VL: DIQMTQSPSSVSASVGDRVTITCRASQGISSWLAWYQQKPGKAPKLLIYAASSLQSGVPSRFSGSGSGTDFTLTISSLQPEDFATYYCQQRHSLPPTFGGGTKVEIK
notes: IgG
B21: BIIB-12-1316 (antibody, V domains shown)
VH: QVQLVESGGGVVQPGRSLRLSCAASGFTFSSYGMHWVRQAPGKGLEWVAVISYDGSNKYYADSVKGRFTISRDNSKNTLYLQMNSLRAEDTAVYYCAKSGQYRAFDIWGQGTMVTVSS
VL: DIQMTQSPSSVSASVGDRVTITCRASQGISSWLAWYQQKPGKAPKLLIYAASSLQSGVPSRFSGSGSGTDFTLTISSLQPEDFATYYCQQINNFPPTFGGGTKVEIK
notes: IgG
B22: BIIB-12-1303 (antibody, V domains shown)
VH: QVQLVESGGGVVQPGRSLRLSCAASGFTFSSYGMHWVRQAPGKGLEWVAVISYDGSNKYYADSVKGRFTISRDNSKNTLYLQMNSLRAEDTAVYYCARGPTSRLFQHWGQGTLVTVS
VL: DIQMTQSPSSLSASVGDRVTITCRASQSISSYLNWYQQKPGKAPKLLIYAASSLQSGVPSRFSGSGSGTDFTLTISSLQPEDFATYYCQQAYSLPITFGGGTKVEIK
notes: IgG

molecular target: T1, non-activatable Factor X (FXn) (Homo sapiens (Human), UniProt P00742 41-488, single biotin on the C-terminal BioTag); experiment: BLI; class meaning: paragraph 285
T1 construct: also called BIIB-FX-015

Binding result, binds:
B1, B2, B3, B4, B5, B6, B7, B8, B9, B10, B11, B12, B13, B14, B15, B16, B17, B18, B19, B20, B21, B22
